The values that follow come from patent publication US20250339531A1 (FRED HUTCHINSON CANCER CENTER, published 2025).

In experiment [1] the target is T1, Immunoglobulin kappa variable 2-40 (Homo sapiens).
T1 construct: also called IGKV2-40
Put plainly: anti-FLAG co-IP LC-MS, exp 4, +Dox +IFNG.

For experiment [2], the target named is T2, Nuclease-sensitive element-binding protein 1 (Fragment) (Homo sapiens, UniProt P67809 2-324).
T2 construct: also called YBX1
Put plainly: anti-FLAG co-IP LC-MS, exp 4, +Dox +IFNG.

For experiment [3], the target named is T3, Heterogeneous nuclear ribonucleoprotein M (Homo sapiens, UniProt P52272 2-730).
T3 construct: also called HNRNPM
T3 sequence (looked up): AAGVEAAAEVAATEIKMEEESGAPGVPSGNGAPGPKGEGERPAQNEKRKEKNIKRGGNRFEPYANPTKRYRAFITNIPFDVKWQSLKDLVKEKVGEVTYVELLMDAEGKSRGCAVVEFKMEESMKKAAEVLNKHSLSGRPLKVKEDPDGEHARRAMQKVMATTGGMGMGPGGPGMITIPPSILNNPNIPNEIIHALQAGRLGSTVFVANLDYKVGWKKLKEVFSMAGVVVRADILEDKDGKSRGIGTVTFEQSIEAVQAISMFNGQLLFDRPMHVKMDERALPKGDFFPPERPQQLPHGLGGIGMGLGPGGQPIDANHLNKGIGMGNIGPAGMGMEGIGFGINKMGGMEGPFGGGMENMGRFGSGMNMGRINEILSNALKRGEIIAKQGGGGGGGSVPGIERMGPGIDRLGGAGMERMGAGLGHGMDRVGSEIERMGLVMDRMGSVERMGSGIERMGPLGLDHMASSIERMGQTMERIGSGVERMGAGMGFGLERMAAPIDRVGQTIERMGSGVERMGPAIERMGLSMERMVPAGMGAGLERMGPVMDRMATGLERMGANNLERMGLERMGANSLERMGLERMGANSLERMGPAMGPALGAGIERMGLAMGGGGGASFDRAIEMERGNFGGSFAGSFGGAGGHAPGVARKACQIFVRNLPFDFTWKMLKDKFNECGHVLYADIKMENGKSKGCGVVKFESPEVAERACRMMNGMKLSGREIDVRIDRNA
The experiment in a line: anti-FLAG co-IP LC-MS, exp 4, +Dox +IFNG.

Experiment [4] has as its target T4, Polyadenylate-binding protein 1 (Homo sapiens, UniProt P11940 1-636).
T4 construct: also called PABPC1
Put plainly: anti-FLAG co-IP LC-MS, exp 4, +Dox +IFNG.

The next experiment concerns the target T5, Nucleolin (Homo sapiens, UniProt P19338 2-710).
T5 construct: also called NCL
The experiment in a line: anti-FLAG co-IP LC-MS, exp 4, +Dox +IFNG.

The target in experiment [5] is T6, Cyclin-dependent kinase 4 (Homo sapiens, UniProt P11802 2-303).
T6 construct: also called CDK4
The experiment in a line: anti-FLAG co-IP LC-MS, exp 4, +Dox +IFNG.

The target of experiment [6] is T7, Signal transducer and activator of transcription 1-alpha/beta (Homo sapiens, UniProt P42224 2-750).
T7 construct: also called STAT1
T7 sequence (looked up): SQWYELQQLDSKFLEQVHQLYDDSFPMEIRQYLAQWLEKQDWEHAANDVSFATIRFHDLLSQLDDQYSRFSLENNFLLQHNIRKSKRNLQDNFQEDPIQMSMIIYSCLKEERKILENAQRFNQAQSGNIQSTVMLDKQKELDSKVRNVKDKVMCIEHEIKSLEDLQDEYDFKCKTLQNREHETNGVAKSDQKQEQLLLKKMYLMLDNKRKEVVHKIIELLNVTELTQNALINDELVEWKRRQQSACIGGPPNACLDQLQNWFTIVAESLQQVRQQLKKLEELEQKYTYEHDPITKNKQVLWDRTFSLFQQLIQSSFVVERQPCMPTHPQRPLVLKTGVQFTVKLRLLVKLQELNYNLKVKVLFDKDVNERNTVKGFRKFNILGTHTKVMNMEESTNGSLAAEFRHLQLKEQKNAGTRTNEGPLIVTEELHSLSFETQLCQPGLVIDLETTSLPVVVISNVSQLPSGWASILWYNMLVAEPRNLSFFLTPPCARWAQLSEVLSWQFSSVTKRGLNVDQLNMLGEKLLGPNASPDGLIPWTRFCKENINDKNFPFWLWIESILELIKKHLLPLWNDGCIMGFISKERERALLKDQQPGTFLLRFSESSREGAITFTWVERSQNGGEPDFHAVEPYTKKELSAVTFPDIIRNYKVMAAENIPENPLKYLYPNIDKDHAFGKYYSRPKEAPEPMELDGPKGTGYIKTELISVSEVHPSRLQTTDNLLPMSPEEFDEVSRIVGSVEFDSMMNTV
The experiment in a line: anti-FLAG co-IP LC-MS, exp 4, +Dox +IFNG.

Experiment [7] concerns the target T8, cDNA FLJ56329, highly similar to Myosin light polypeptide 6 (Homo sapiens).
T8 construct: also called MYL6
The experiment in a line: anti-FLAG co-IP LC-MS, exp 4, +Dox +IFNG.

Experiment [8] addresses T9, 3×MYC-STAT1-S727E phosphorylated at Y701 with JAK1 kinase (UniProt P42224 1-750, phosphorylated at Y701 with JAK1 kinase).
T9 construct: In vitro translated in rabbit reticulocyte lysate; not shown: 3×MYC tag
T9 sequence (looked up): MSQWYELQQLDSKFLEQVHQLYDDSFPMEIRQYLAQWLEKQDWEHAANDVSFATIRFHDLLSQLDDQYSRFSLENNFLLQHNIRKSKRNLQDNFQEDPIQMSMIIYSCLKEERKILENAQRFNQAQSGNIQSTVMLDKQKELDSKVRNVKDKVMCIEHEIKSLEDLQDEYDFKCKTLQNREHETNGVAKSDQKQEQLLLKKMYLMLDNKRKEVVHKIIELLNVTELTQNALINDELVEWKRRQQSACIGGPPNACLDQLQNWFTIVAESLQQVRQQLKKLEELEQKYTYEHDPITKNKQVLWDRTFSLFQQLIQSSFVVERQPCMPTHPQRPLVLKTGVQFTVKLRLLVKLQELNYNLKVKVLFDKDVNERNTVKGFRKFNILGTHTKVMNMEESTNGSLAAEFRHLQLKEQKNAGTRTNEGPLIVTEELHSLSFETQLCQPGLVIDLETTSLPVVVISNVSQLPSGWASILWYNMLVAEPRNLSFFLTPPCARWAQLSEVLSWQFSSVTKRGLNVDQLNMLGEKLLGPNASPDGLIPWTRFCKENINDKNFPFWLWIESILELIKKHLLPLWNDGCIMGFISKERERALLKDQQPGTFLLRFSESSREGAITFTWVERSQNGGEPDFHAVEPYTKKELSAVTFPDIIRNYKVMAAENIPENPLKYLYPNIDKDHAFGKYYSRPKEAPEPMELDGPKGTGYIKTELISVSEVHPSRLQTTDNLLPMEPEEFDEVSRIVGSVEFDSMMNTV
Put plainly: anti-FLAG IP of in vitro translated proteins, with JAK1 treatment, western.

T2 sequence (P67809 2-324 limits assumed): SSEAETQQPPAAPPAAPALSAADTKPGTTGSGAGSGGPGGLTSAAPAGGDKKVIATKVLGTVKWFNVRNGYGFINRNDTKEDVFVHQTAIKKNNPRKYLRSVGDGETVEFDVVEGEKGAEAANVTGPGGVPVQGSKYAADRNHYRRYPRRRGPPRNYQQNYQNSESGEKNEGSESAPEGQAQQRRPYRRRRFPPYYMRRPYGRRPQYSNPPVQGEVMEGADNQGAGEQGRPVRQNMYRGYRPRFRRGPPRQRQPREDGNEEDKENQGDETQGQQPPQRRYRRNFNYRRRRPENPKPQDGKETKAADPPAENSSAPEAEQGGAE
T4 sequence (P11940 whole entry): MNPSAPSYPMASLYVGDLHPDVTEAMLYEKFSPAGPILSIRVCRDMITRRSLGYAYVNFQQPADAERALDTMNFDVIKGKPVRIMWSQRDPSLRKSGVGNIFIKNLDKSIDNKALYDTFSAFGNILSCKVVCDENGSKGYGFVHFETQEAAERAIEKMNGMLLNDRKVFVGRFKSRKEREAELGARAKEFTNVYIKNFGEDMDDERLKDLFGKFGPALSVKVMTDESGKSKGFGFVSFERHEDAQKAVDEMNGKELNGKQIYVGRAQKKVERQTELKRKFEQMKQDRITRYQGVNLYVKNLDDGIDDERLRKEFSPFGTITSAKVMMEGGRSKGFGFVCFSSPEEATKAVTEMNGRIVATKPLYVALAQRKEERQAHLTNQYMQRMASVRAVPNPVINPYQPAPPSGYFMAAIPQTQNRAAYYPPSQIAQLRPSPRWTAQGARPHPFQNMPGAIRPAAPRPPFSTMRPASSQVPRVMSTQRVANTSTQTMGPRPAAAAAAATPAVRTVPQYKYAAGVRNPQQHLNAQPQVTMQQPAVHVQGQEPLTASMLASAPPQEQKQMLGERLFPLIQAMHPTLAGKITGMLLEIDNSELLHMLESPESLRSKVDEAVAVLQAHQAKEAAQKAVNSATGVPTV
T1 sequence (A0A087WW87 20-121): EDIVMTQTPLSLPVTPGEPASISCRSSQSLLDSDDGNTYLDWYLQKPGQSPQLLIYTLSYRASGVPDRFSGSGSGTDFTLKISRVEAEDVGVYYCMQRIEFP
T5 sequence (P19338 2-710 limits assumed): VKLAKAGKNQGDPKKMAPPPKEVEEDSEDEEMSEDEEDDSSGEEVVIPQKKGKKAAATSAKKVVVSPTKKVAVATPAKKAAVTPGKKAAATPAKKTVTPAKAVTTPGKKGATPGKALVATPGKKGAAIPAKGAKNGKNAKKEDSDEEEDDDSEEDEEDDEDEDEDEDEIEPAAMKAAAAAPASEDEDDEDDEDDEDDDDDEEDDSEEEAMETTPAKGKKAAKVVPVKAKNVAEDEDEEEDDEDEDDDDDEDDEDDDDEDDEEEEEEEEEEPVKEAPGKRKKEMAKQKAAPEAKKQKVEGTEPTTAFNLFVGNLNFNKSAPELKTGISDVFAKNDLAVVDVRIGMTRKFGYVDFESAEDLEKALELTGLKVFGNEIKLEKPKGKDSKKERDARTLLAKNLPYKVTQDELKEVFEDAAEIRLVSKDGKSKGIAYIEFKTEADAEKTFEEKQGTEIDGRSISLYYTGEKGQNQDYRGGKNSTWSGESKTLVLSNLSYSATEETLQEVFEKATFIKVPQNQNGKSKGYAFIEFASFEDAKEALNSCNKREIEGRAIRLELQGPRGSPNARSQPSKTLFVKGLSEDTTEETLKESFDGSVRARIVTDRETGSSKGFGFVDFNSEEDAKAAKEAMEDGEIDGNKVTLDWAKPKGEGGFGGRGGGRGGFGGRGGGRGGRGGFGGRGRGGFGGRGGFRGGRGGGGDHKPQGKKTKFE
T6 sequence (P11802 2-303 limits assumed): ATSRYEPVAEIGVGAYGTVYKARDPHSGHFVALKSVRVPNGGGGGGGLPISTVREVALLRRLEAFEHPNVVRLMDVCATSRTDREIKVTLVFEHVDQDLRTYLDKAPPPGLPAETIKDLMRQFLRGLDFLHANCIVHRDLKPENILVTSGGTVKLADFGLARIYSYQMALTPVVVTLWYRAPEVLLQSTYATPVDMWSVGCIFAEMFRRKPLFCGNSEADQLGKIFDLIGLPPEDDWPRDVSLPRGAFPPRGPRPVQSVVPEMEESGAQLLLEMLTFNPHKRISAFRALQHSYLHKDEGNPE

B1: i3XFLAG-NLS-CTDaa154-424 (other)
chain: MDYKDHDGDYKDHDIDYKDDDDKPPKRMRREPKKKRKVGRAPAQAGGLCSAAPGGGHPAPSWVAFAHTGAWGTGLPAPHVPCAPGALPQGAFVSQAARAAPALQPSQAAPAEGISQPAPARGDFAYAAPAPPDGALSHPQAPRWPPHPGKSREDRDPQRDGLPGPCAVAQPGPAQAGPQGQGVLAPPTSQGSPWWGWGRGPQVAGAAWEPQAGAAPPPQPAPPDASASARQGQMQGIPAPSQALQEPAPWSALPCGLLLDELLASPEFLQQAQPLLETEAPGELEASEEAASLEAPLSEEEYRALLEEL
notes: Doxycycline-induced in MB135 cells for co-IP; also called longCTD; iDUX4-CTD
As to B1, the PSMs in experiment [1] is 5 PSMs; in experiment [2] it was 7 PSMs; in [3], 2 PSMs; in experiment [4], 3 PSMs; with Nucleolin it was 1 PSMs; in experiment [5], 11 PSMs. The PSMs in experiment [6] amounted to 19 PSMs; in experiment [7], 5 PSMs. Besides, the binding result in experiment [8] is “no binding”.
